Assays:
Assay in all cases: SPR; biotinylated phosphopeptides immobilised on streptavidin chip (about 25 RU single, 50 RU tandem motifs); soluble recombinant protein injected; 37°C; HBS-EP; equilibrium binding (Table 4; same-day purification not given)
[1] = target: CD244 ITSM2 phosphopeptide (human)
[2] = target: CD244 ITSM4 phosphopeptide (human)
[3] = target: CD244 ITSM3 phosphopeptide (human)

Chain of SAP (recombinant full-length human SAP) (O60880 whole entry): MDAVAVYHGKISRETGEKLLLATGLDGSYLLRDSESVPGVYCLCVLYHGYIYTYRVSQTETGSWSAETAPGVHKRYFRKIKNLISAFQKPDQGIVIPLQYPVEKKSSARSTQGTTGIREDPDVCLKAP

Kd [1]: 20 nM
Kd [2]: 1900 nM
Kd [3]: 80 nM
Substance: SAP (recombinant full-length human SAP) (from UniProt O60880 1-128) (natural protein)

Reference: paper PMC3958483, “Fine Specificity and Molecular Competition in SLAM Family Receptor Signalling” (PLoS ONE, 2014)
